Tests used:
[1] = system: TAMRA-cs074B; assay: Fluorescence polarization (FP) titration and kinetics, hinge vs TAMRA-cs074B; assay type: binding; conditions: 1 nM peptide cs074B, varying hinge; FIG. 10
Procedure: (§1) All FP measurements were performed at 25° C. in 96-well plates (Corning 3686) using a Synergy Neo2™ plate reader and a 530/590 nm filter cube. The buffer for all FP measurements was 20 mM Tris-HCl, 100 mM NaCl, 0.05% v/v TWEEN20 at pH 8. Titrations were carried out in 96-well format, with 4 replicates per plate and 24 data points per titration (23 steps of two-fold serial dilution of hinges in the presence of TAMRA-labeled peptide at a constant concentration between 0.1 nM and 1 nM) with a final sample volume of 80 μl per well. Titration plates were incubated overnight at room temperature before measuring to ensure complete equilibration. The polarization signal S (as calculated by the Neo2™ software) was fitted to the equation
(§2) where fAB is the fraction of peptide that is bound, Atot is the absolute hinge concentration, Btot is the absolute peptide concentration, S0 is the baseline polarization of free peptide, and S1 is the change in polarization upon complex formation.
(§3) Fitting was performed using the scipy.optimize.curve_fit python function (53). Uncertainties for KD values are standard deviation errors calculated from the covariance matrix of the fits. In cases where the fitted KD was lower than the concentration of the labeled peptide Btot, we report the KD as KD<Btot.
(§4) For FP kinetics experiments a 2× peptide solution and 8 different 2× hinge solutions at different concentrations were prepared separately. 40 μl of each hinge solution were mixed with 40 μl peptide solution using a multichannel pipet and the measurement was started immediately after mixing. Polarization signals S at each concentration were fitted individually to the equation
(§5) where S0 is the amplitude, S1 is the polarization at equilibrium, kapp is the apparent rate constant, t is the time after start of the measurement, and t0 is the dead time between mixing and start of the measurement. For each hinge-peptide pair, the apparent rate constants for 8 different concentrations are fitted to the equation
(§6) where koff and kon are observed off- and on rates and Atot is the absolute hinge concentration.

[2] = system: TAMRA-cs201B; assay: FP titration and kinetics, hinge vs TAMRA-cs201B; assay type: binding; conditions: for binding in FP titration: 1 nM peptide cs201B, varying hinge, FIG. 10
Chain of TAMRA-cs201B (as listed by the source): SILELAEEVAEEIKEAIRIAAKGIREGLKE
Procedure: as §1, §2, §3, §4, §5, §6

[3] = system: TAMRA-cs221B; assay: FP titration and kinetics, hinge vs TAMRA-cs221B; assay type: binding; conditions: for binding in FP titration: 1 nM peptide cs221B, varying hinge, FIG. 10; for peptide binding: FP; for kon: Effector TAMRA-cs221B, method FP
Chain of TAMRA-cs221B (as listed by the source): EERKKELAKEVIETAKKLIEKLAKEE
Procedure: as §1, §2, §3, §4, §5, §6

[4] = system: TAMRA-js007B; assay: FP titration and kinetics, hinge vs TAMRA-js007B; assay type: binding
Chain of TAMRA-js007B (as listed by the source): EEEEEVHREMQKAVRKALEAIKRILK
Procedure: as §1, §2
as §3, with “KD<Btot. […]” for “KD<Btot.”

[5] = system: original peptides fused to superfolder green fluorescent protein (sfGFP); assay: SEC binding experiments with original peptides fused to sfGFP; conditions: FIG. 17C
Procedure: Individual hinge and sfGFP-fused peptides or 3hb were diluted in 20 mM Tris pH 8, 100 mM NaCl and mixed at approximately 1:1 concentrations. 0.5-1 mL of the resulting samples were injected onto a Superdex™ 200 Increase 10/300 GL columns and the absorbance at 230 nm was used as a readout for binding. For sfGFP-fused peptides, 473 nm was also used as readout. Mixtures were at a total concentration of 2. μM or higher.

Chain of TAMRA-cs074B (as listed by the source): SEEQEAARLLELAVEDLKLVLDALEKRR

B1: csw13: cs201-derived hinge redesigned to bind peptide cs221B, SEQ ID NO:17 (protein)
chain: MSGNEEVKKLVEEAKKYLKEAEEYIKKAKKTGNEELLEKALKLLEKALELVKKAIELDPNNKEAIEQAVEIARALNEVAELLIEEAKKTGNEELLEKALEALEAANEALKLAIENNENDKELLAEIAVELAEVGVLLAEVLIEEAKKTGDPELLKLALEVLEAAVEALELALKLDPNNEEAVELAEEAAKLLEEVAKELKEEAKKTGDPELEKLAKEAEELAKRAKELAERQRGSGSHHWGSTHHHHHH
binding in FP titration [1]: not binding
binding in FP titration [2]: not binding
binding in FP titration [3]: specifically binds
binding in FP titration ([4]; 1 nM peptide js007B, varying hinge, FIG. 10): not binding

B2: cs230: designed hinge protein, SEQ ID NO:12 (protein)
chain: MSGTKEEKERIERIEKEVRSPDPENILEAVRKALELFRENPSEEAKELLKRAIEAALRSEDERAILEALRAALEAYRQGAGDREGLLEAIRVAIRRAAESEDERAILEAVRAARILLEAERTEEAKELLRVAIERAKKSPDPEAQREAKRAEEELRKEDGSGSHHWGSTHHHHHH
SEC binding experiment with sfGFP-fused original peptide [5]: higher-order peaks

B3: cs201: designed hinge protein, SEQ ID NO:7 (protein)
chain: MSGDEEVQEAVERAEELREEAEELIKKARKTGDPELLRKALEALKEAVRAVREAIKRNPDNEEAIKTALRLARELRKVAKELIERARKTGDAELLKKALEAARVAVEAVRLAAEYNKENAEKMAELLVELAELAREVADVLIELAEKTGDPELLKKALEVLEEAVEAVRLAIEYDPDHEEAVETAKRLAEELRKVAELLEERAKETGDPELQELAKRAKEVADRARELAKKSNGSGSHHWGSTHHHHHH
kon ([2]; Effector TAMRA-cs201B, method FP): 6700 M⁻¹ s⁻¹

B4: cs221_lockedX: cs221 variant with disulfide that locks state X, SEQ ID NO:19 (protein)
chain: MSGEMKEEIRRLAEELRERTKDEEVRELAREAARLAEESDDEEVKEVVKKALEAALKSKDEEVIRLLLLAAVCAAAAARSGSPEEKLEIAKKALELAMKSKDEEVIRLALLAAVLACRSDDEEVLKKVKEALEKAMESKDVEEIRERLREAVEVARAGSGSHHWGSTHHHHHH
peptide binding ([3]; oxidizing conditions (disulfide formed)): only weak residual binding
peptide binding ([3]; upon addition of reducing agent DTT): fully restored

B5: cs221: designed hinge protein, SEQ ID NO:10 (protein)
chain: MSGEMKEEIRRLAEELRERTKDEEVRELAREAARLAEESDDEEVKEVVKKALEAALKSKDEEVIRLLLLAAVLAAAAARSGSPEEKLEIAKKALELAMKSKDEEVIRLALLAAVLAARSDDEEVLKKVKEALEKAMESKDVEEIRERLREAVEVARAGSGSHHWGSTHHHHHH
kon [3]: 3400 M⁻¹ s⁻¹

B6: cs221_lockedY: cs221 variant with disulfide that locks state Y, SEQ ID NO:20 (protein)
chain: MSGEMKEEIRRLAEELRERTKDEEVRELAREAARLAEESDDEEVKEVVKKALEAALKSKDEEVIRLLLCAAVLAAAAARSGSPEEKLEIAKKALELAMKSKDEEVIRLACLAAVLAARSDDEEVLKKVKEALEKAMESKDVEEIRERLREAVEVARAGSGSHHWGSTHHHHHH
kon [3]: 790000 M⁻¹ s⁻¹

B7: cs221_A114T: hinge cs221 with point mutation A114T (protein)
chain: MSGEMKEEIRRLAEELRERTKDEEVRELAREAARLAEESDDEEVKEVVKKALEAALKSKDEEVIRLLLLAAVLAAAAARSGSPEEKLEIAKKALELAMKSKDEEVIRLALLAAVLATRSDDEEVLKKVKEALEKAMESKDVEEIRERLREAVEVARAGSGSHHWGSTHHHHHH
kon [3]: 27700 M⁻¹ s⁻¹

B8: cs221_A73E: hinge cs221 with point mutation A73E (protein)
chain: MSGEMKEEIRRLAEELRERTKDEEVRELAREAARLAEESDDEEVKEVVKKALEAALKSKDEEVIRLLLLAAVLAAEAARSGSPEEKLEIAKKALELAMKSKDEEVIRLALLAAVLAARSDDEEVLKKVKEALEKAMESKDVEEIRERLREAVEVARAGSGSHHWGSTHHHHHH
kon [3]: 1900 M⁻¹ s⁻¹

B9: cs221_L66T: hinge cs221 with point mutation L66T (protein)
chain: MSGEMKEEIRRLAEELRERTKDEEVRELAREAARLAEESDDEEVKEVVKKALEAALKSKDEEVIRLLLTAAVLAAAAARSGSPEEKLEIAKKALELAMKSKDEEVIRLALLAAVLAARSDDEEVLKKVKEALEKAMESKDVEEIRERLREAVEVARAGSGSHHWGSTHHHHHH
kon [3]: 2700 M⁻¹ s⁻¹

B10: cs221_V111L: hinge cs221 with point mutation V111L (protein)
chain: MSGEMKEEIRRLAEELRERTKDEEVRELAREAARLAEESDDEEVKEVVKKALEAALKSKDEEVIRLLLLAAVLAAAAARSGSPEEKLEIAKKALELAMKSKDEEVIRLALLAALLAARSDDEEVLKKVKEALEKAMESKDVEEIRERLREAVEVARAGSGSHHWGSTHHHHHH
kon [3]: 24300 M⁻¹ s⁻¹

B11: cs221_V111L_A111T: state Y-stabilizing double mutant of hinge cs221 (protein)
chain: MSGEMKEEIRRLAEELRERTKDEEVRELAREAARLAEESDDEEVKEVVKKALEAALKSKDEEVIRLLLLAAVLAAAAARSGSPEEKLEIAKKALELAMKSKDEEVIRLALLAALLATRSDDEEVLKKVKEALEKAMESKDVEEIRERLREAVEVARAGSGSHHWGSTHHHHHH
kon [3]: 76200 M⁻¹ s⁻¹

B12: js007: designed hinge protein, SEQ ID NO:11 (protein)
chain: MSGSEEVNERVKQLAEKAKEATDKEEVIEIVKELAELAKQSTDPNLVAEVVRALTEVAKTSTDTELIQEIVKVLLELARRLTDPQLLLEVLKSIAELLKELAEKTGNETAKLAALVAQIAAEVVEMALRAEKTHPGSEIVKLAVELVQKVAEIVLIAAQLMLDKPNSDEVRKVLKEVEKVAREALKALREAKRHPDSQKARDEIKEASQKAEEVKERIERAQEGSGSHHWGSTHHHHHH
kon ([4]; Effector TAMRA-js007B, method FP): 78000 M⁻¹ s⁻¹

B13: csw20: cs201-derived hinge redesigned to bind peptide cs074B, SEQ ID NO:18 (protein)
chain: MSGMEEVKELVEKAEELAKEAEELIKKAKKTGNPELLKEALRKLKEAVELAKEAVELDPEHEEAIELLARLAEKLLEVAKLLIELAKKTGNPELLKEALRALKEAREALRLAAEHAPEDAKLLARLAARLAELALLIAKILIELAKKTGNPELLLKALKVLTLAVEAVEAALEADPRLKEAVRVAKELAEVLKELAKLAKELAKKTGNEELKEAAKEAEEVAKRAEELAREAEGSGSHHWGSTHHHHHH
binding in FP titration [1]: most strongly
binding in FP titration [2]: still binds
binding in FP titration [3]: weaker than the new target
